Data on 17 substances can be found in article PMC3618588.

The target in one assay is His6-JAK2 JH1 (836-1132), phosphorylated (JAK2^pY1007/pY1008) (mouse) (UniProt Q62120).
Chain of UniProt Q62120 (Q62120 836-1132): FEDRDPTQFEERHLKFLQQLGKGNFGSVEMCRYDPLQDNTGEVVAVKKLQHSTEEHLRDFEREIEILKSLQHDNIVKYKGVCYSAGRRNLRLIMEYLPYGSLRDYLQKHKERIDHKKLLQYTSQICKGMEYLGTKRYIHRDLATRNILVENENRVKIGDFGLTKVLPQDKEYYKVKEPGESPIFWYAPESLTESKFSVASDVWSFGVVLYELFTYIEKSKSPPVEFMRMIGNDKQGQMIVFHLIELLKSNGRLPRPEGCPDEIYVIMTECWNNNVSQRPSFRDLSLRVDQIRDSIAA
isolated KIR peptide from SOCS1 showed an IC50 of inhibition of JAK2 kinase activity by the isolated peptide of 100 µM.

The target is the same in the next assay. This is another data set of the same source.
On to “SOCS3 A50E / elonginBC complex (from UniProt O35718 22-225; Q15370 1-118; Q15369 1-112)”, for which the IC50^mutant/IC50^WT, inhibition of JAK2 JH1 kinase activity is 1.1 ratio to WT.
On the same count and under the same terms, next, “SOCS3 E30A / elonginBC complex (from UniProt O35718 22-225; Q15370 1-118; Q15369 1-112)”: 23 ratio to WT; “SOCS3 S29A / elonginBC complex (from UniProt O35718 22-225; Q15370 1-118; Q15369 1-112)”: 2 ratio to WT.
Same read-out and setting: next, “SOCS3 K23A / elonginBC complex (from UniProt O35718 22-225; Q15370 1-118; Q15369 1-112)”: 1.4 ratio to WT; “SOCS3 R77A / elonginBC complex (from UniProt O35718 22-225; Q15370 1-118; Q15369 1-112)”: 1.4 ratio to WT.
Same read-out and setting: the result for “SOCS3 Y47F / elonginBC complex (from UniProt O35718 22-225; Q15370 1-118; Q15369 1-112)” reads 80 ratio to WT.
For the substance “SOCS3 K28A / elonginBC complex (from UniProt O35718 22-225; Q15370 1-118; Q15369 1-112)”, the IC50^mutant/IC50^WT, inhibition of JAK2 JH1 kinase activity is 2.8 ratio to WT.
Same read-out and setting: the result for “SOCS3 S26A / elonginBC complex (from UniProt O35718 22-225; Q15370 1-118; Q15369 1-112)” reads 1 ratio to WT.
Take “SOCS3 T24A / elonginBC complex (from UniProt O35718 22-225; Q15370 1-118; Q15369 1-112)”: the IC50^mutant/IC50^WT, inhibition of JAK2 JH1 kinase activity is 3.3 ratio to WT.
The same measure, in the same setting: the result for “SOCS3 S27A / elonginBC complex (from UniProt O35718 22-225; Q15370 1-118; Q15369 1-112)” reads 2.5 ratio to WT; that for “SOCS3 A50K / elonginBC complex (from UniProt O35718 22-225; Q15370 1-118; Q15369 1-112)”, 6 ratio to WT.
Still for that read-out and setting: next, “SOCS3 T52A / elonginBC complex (from UniProt O35718 22-225; Q15370 1-118; Q15369 1-112)”: 10 ratio to WT; “SOCS3 L22F / elonginBC complex (from UniProt O35718 22-225; Q15370 1-118; Q15369 1-112)”: 0.1 ratio to WT; “SOCS3 Y31A / elonginBC complex (from UniProt O35718 22-225; Q15370 1-118; Q15369 1-112)”: 6 ratio to WT.
The same measure, in the same setting: the result for “SOCS3^22-225 / elonginBC complex (wild type) (from UniProt O35718;Q15370;Q15369)” reads 1 ratio to WT.
Turning to “SOCS3 L22A / elonginBC complex (from UniProt O35718 22-225; Q15370 1-118; Q15369 1-112)”, the IC50^mutant/IC50^WT, inhibition of JAK2 JH1 kinase activity was 1.2 ratio to WT.
